Target: Crassostrea gigas GABARAPL2, Flag-tagged (Crassostrea gigas)
Test: co-IP

fold intensity of the co-IP against the other three Atg8 family members: 4.4 fold
Substance: Crassostrea gigas starch-binding domain-containing protein 1 (STBD1), HA-tagged (natural protein)

Source: paper PMC12913940
